{"source": "patent US20170190775A1", "key": {"[1]": {"biological_target": "human TREM-1 (hTREM-1) protein (human) (UniProt Q9NP99)", "sequence (Q9NP99 21-200 limits assumed)": "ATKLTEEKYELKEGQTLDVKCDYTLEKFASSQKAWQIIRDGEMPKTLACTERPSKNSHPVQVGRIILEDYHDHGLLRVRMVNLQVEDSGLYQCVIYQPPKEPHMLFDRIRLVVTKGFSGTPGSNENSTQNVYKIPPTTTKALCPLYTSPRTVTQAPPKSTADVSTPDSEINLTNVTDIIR", "assay": "SPR, mAb captured by anti-Fc, hTREM-1 as analyte (Example 11)"}, "[2]": {"biological_target": "human TREM-1 on cells (human) (UniProt Q9NP99)", "sequence (Q9NP99 21-234 limits assumed)": "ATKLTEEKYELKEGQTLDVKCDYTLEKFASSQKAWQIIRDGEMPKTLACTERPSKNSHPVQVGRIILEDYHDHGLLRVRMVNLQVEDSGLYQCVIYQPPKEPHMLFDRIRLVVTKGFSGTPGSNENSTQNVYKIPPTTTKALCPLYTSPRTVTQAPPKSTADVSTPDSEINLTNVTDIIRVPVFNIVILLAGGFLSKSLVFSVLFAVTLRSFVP", "assay": "cell-based or functional assay"}, "[3]": {"biological_target": "T1, full length cynomolgus monkey (c)TREM-1 on cells (cynomolgus monkey)", "T1 sequence": "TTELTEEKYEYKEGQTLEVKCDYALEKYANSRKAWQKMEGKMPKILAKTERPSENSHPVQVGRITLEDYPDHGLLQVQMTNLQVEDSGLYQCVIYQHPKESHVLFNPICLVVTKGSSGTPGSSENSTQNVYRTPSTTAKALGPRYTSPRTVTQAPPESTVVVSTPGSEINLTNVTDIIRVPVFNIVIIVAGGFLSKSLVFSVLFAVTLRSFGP", "assay": "cell-based or functional assay"}, "[4]": {"biological_target": "cynomolgus TREM-1 (cTREM-1) protein (cynomolgus monkey)", "assay": "SPR, mAb captured by anti-Fc, cTREM-1 as analyte (Example 11)"}}}
{"substance": "HM2252 (clone 6B1, Hycult Biotech) (antibody)", "values": [{"measurement": "Kd", "setting": "[1]", "value": 3, "unit": "nM"}, {"measurement": "% remaining activity at 0.003 µg/ml, BWZ/hTREM-1 reporter", "setting": "[2]", "value": 96, "unit": "%"}, {"measurement": "% remaining activity at 0.03 µg/ml, BWZ/hTREM-1 reporter", "setting": "[2]", "value": 122, "unit": "%"}, {"measurement": "% remaining activity at 0.3 µg/ml, BWZ/hTREM-1 reporter", "setting": "[2]", "value": 113, "unit": "%"}]}
{"substance": "MAB1278 (R&D Systems, cat. no. MAB1278) (antibody)", "values": [{"measurement": "Kd", "setting": "[1]", "value": 8, "unit": "nM"}, {"measurement": "BWZ/hTREM-1 reporter signal, RA synovial fluid, mAb at 0.1 ug/ml, assay 1", "setting": "[2]", "value": 829000}, {"measurement": "BWZ/hTREM-1 reporter signal, RA synovial fluid, mAb at 0.1 ug/ml, assay 2", "setting": "[2]", "value": 691000}, {"measurement": "BWZ/hTREM-1 reporter signal, RA synovial fluid, mAb at 1 ug/ml, assay 1", "setting": "[2]", "value": "1.19e+06"}, {"measurement": "BWZ/hTREM-1 reporter signal, RA synovial fluid, mAb at 1 ug/ml, assay 2", "setting": "[2]", "value": "1.02e+06"}, {"measurement": "BWZ/hTREM-1 reporter signal, RA synovial fluid, mAb at 10 ug/ml, assay 1", "setting": "[2]", "value": "1.08e+06"}, {"measurement": "BWZ/hTREM-1 reporter signal, RA synovial fluid, mAb at 10 ug/ml, assay 2", "setting": "[2]", "value": "1.05e+06"}, {"measurement": "IL-6, M2 macrophages on platebound mAb 2 µg/ml", "setting": "[2]", "value": 412, "unit": "pg/mL"}, {"measurement": "IL-6, M2 macrophages on platebound mAb 6 µg/ml", "setting": "[2]", "value": 877, "unit": "pg/mL"}, {"measurement": "IL-6, M2 macrophages on platebound mAb 20 µg/ml", "setting": "[2]", "value": 1350, "unit": "pg/mL"}, {"measurement": "Luminescence, BWZ/hTREM-1 reporter cell + activated neutrophils (8.8 x 10E6 without antibody)", "setting": "[2]", "value": "1e+07", "unit": "luminescence"}, {"measurement": "TNFa, M2 macrophages on platebound mAb 2 µg/ml", "setting": "[2]", "value": 2000, "unit": "pg/mL"}, {"measurement": "TNFa, M2 macrophages on platebound mAb 6 µg/ml", "setting": "[2]", "value": 6450, "unit": "pg/mL"}, {"measurement": "TNFa, M2 macrophages on platebound mAb 20 µg/ml", "setting": "[2]", "value": 7750, "unit": "pg/mL"}, {"measurement": "fold induction of the BWZ/hTREM-1 reporter signal by platebound antibody", "setting": "[2]", "value": 32, "unit": "fold"}, {"measurement": "induction of NFAT-driven LacZ production, 1-10 µg/ml plate bound antibody against isotype control", "setting": "[2]", "value": 40, "unit": "fold"}, {"measurement": "normalised reporter signal, PGN-activated neutrophils (normalised signal)", "setting": "[2]", "value": "> 1"}]}
{"substance": "SAB1405121 (clone 3F5, Sigma Aldrich) (antibody)", "values": [{"measurement": "% remaining activity at 0.003 µg/ml, BWZ/hTREM-1 reporter", "setting": "[2]", "value": 104, "unit": "%"}, {"measurement": "% remaining activity at 0.03 µg/ml, BWZ/hTREM-1 reporter", "setting": "[2]", "value": 101, "unit": "%"}, {"measurement": "% remaining activity at 0.3 µg/ml, BWZ/hTREM-1 reporter", "setting": "[2]", "value": 97, "unit": "%"}]}
{"substance": "WH0054210M4 (clone 2E2, Sigma Aldrich) (antibody)", "values": [{"measurement": "Kd", "setting": "[1]", "value": 20, "unit": "nM"}, {"measurement": "% remaining activity at 0.003 µg/ml, BWZ/hTREM-1 reporter", "setting": "[2]", "value": 98, "unit": "%"}, {"measurement": "% remaining activity at 0.03 µg/ml, BWZ/hTREM-1 reporter", "setting": "[2]", "value": 104, "unit": "%"}, {"measurement": "% remaining activity at 0.3 µg/ml, BWZ/hTREM-1 reporter", "setting": "[2]", "value": 86, "unit": "%"}]}
{"substance": "clone TREM-26 (Biolegend) (antibody)", "values": [{"measurement": "Kd", "setting": "[1]", "value": 0.9, "unit": "nM"}, {"measurement": "% remaining cyno TREM-1 activity at 0.74 ug/ml, reporter cell", "setting": "[3]", "value": 104, "unit": "%"}, {"measurement": "% remaining cyno TREM-1 activity at 20 ug/ml, reporter cell", "setting": "[3]", "value": 87.7, "unit": "%"}, {"measurement": "% remaining activity at 0.003 µg/ml, BWZ/hTREM-1 reporter", "setting": "[2]", "value": 100, "unit": "%"}, {"measurement": "% remaining activity at 0.03 µg/ml, BWZ/hTREM-1 reporter", "setting": "[2]", "value": 124, "unit": "%"}, {"measurement": "% remaining activity at 0.3 µg/ml, BWZ/hTREM-1 reporter", "setting": "[2]", "value": 108, "unit": "%"}, {"measurement": "Luminescence, BWZ/hTREM-1 reporter cell + activated neutrophils (8.8 x 10E6 without antibody)", "setting": "[2]", "value": "9.9e+06", "unit": "luminescence"}, {"measurement": "normalised reporter signal, PGN-activated neutrophils (normalised signal)", "setting": "[2]", "value": "> 1"}, {"measurement": "Kd", "setting": "[4]", "value": 4, "unit": "nM"}]}
{"substance": "clone TREM-37 (Biolegend, cat. no. 316102) (antibody)", "values": [{"measurement": "Kd", "setting": "[1]", "value": 0.8, "unit": "nM"}, {"measurement": "% remaining activity at 0.003 µg/ml, BWZ/hTREM-1 reporter", "setting": "[2]", "value": 98, "unit": "%"}, {"measurement": "% remaining activity at 0.03 µg/ml, BWZ/hTREM-1 reporter", "setting": "[2]", "value": 103, "unit": "%"}, {"measurement": "% remaining activity at 0.3 µg/ml, BWZ/hTREM-1 reporter", "setting": "[2]", "value": 90, "unit": "%"}, {"measurement": "Luminescence, BWZ/hTREM-1 reporter cell + activated neutrophils (8.8 x 10E6 without antibody)", "setting": "[2]", "value": "6.1e+06", "unit": "luminescence"}, {"measurement": "normalised reporter signal, PGN-activated neutrophils (normalised signal)", "setting": "[2]", "value": "> 1"}]}
{"substance": "recombinant human PGLYRP1 expressed from E. coli and refolded (from UniProt O75594 22-196) (ligand)", "values": [{"measurement": "TNF-α, cynomolgus M2 macrophages, PGN + PGRP-S, donor 1", "setting": "[3]", "value": 295, "unit": "pg/mL"}, {"measurement": "TNF-α, cynomolgus M2 macrophages, PGN + PGRP-S, donor 2", "setting": "[3]", "value": 307, "unit": "pg/mL"}, {"measurement": "GM-CSF, RA synovial tissue cells, PGN + PGLYRP1 (PGN alone 182)", "setting": "[2]", "value": 616, "unit": "pg/mL"}, {"measurement": "IL-1beta, RA synovial tissue cells, PGN + PGLYRP1 (PGN alone 2419)", "setting": "[2]", "value": 3770, "unit": "pg/mL"}, {"measurement": "IL-6, RA synovial tissue cells, PGN + PGLYRP1 (PGN alone 2057)", "setting": "[2]", "value": 4190, "unit": "pg/mL"}, {"measurement": "IL-8, RA synovial tissue cells, PGN + PGLYRP1 (PGN alone 2575)", "setting": "[2]", "value": 5510, "unit": "pg/mL"}, {"measurement": "MCP-1, RA synovial tissue cells, PGN + PGLYRP1 (PGN alone 273)", "setting": "[2]", "value": 471, "unit": "pg/mL"}, {"measurement": "MIP-1beta, RA synovial tissue cells, PGN + PGLYRP1 (PGN alone 2458)", "setting": "[2]", "value": 4400, "unit": "pg/mL"}, {"measurement": "TNFa, normoxic M2 macrophages, PGN-BS + PGLYRP1, donor 1 (PGN-BS alone 427)", "setting": "[2]", "value": 728, "unit": "pg/mL"}, {"measurement": "TNFa, normoxic M2 macrophages, PGN-BS + PGLYRP1, donor 2 (PGN-BS alone 381)", "setting": "[2]", "value": 771, "unit": "pg/mL"}, {"measurement": "TNFalpha, RA synovial tissue cells, PGN + PGLYRP1 (PGN alone 624)", "setting": "[2]", "value": 1440, "unit": "pg/mL"}]}
{"substance": "sc-80394 (clone 98Z12, Santa Cruz Biotechnology) (antibody)", "values": [{"measurement": "Kd", "setting": "[1]", "value": 30, "unit": "nM"}, {"measurement": "% remaining activity at 0.003 µg/ml, BWZ/hTREM-1 reporter", "setting": "[2]", "value": 120, "unit": "%"}, {"measurement": "% remaining activity at 0.03 µg/ml, BWZ/hTREM-1 reporter", "setting": "[2]", "value": 134, "unit": "%"}, {"measurement": "% remaining activity at 0.3 µg/ml, BWZ/hTREM-1 reporter", "setting": "[2]", "value": 131, "unit": "%"}]}
{"substance": "type II PGLYRP1 on transiently transfected HEK cells (ligand)", "values": [{"measurement": "TNF-a release, RA synovial tissue cells + IgG4 + 1 x 10^3 Type II cells", "setting": "[2]", "value": 57.9, "unit": "pg/mL"}, {"measurement": "TNF-a release, RA synovial tissue cells + IgG4 + 1 x 10^4 Type II cells", "setting": "[2]", "value": 95, "unit": "pg/mL"}, {"measurement": "TNF-a release, RA synovial tissue cells + IgG4 + 1 x 10^5 Type II cells", "setting": "[2]", "value": 121, "unit": "pg/mL"}, {"measurement": "TNF-a release, RA synovial tissue cells + IgG4 + 3 x 10^3 Type II cells", "setting": "[2]", "value": 54.6, "unit": "pg/mL"}, {"measurement": "TNF-a release, RA synovial tissue cells + IgG4 + 3 x 10^4 Type II cells", "setting": "[2]", "value": 114, "unit": "pg/mL"}]}
